This note sets out measurements from patent publication US20030072752A1 (GENERAL HOSPITAL CORPORATION A MASSACHUSETTS, published 2003).

By Ki is commonly meant the equilibrium dissociation constant of an inhibitor or competing ligand from its target.

Test [1] addresses T1, bovine cathepsin L (bovine, UniProt P25975 118-334, limits assumed).
T1 construct: also called chatepsin L
Put plainly: enzyme inhibition, Dixon plots at different substrate concentrations (Z-Phe-Arg-MCA).

Test [2] has as its target papain (UniProt P00784). As to the kind of experiment: enzyme inhibition, Dixon plots at different substrate concentrations (BANA).
The target of test [3] is T1, bovine cathepsin L. As to the kind of experiment: enzyme inhibition (method not restated here).
Test [4] has as its target T1, bovine cathepsin L. As to the kind of experiment: enzyme inhibition (method and origin of the value not stated).

T1 sequence (P25975 118-334 limits assumed): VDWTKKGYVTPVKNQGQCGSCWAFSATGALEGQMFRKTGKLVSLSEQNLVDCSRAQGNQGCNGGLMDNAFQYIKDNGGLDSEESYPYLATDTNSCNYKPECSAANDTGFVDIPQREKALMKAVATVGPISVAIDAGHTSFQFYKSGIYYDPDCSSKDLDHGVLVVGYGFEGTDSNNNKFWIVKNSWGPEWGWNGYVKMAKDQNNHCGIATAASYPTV
Sequence of papain (P00784 134-345 limits assumed): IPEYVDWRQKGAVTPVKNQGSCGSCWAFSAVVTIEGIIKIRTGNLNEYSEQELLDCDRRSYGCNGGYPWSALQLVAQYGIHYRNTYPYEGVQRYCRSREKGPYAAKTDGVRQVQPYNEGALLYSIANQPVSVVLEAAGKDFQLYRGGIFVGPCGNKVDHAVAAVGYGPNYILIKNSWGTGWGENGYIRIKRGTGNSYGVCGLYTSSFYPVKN

For “psoriastatin preparation (purified from psoriatic scale extract)”, the results for the Ki in test [1], in test [2] and in test [3] were 1.9 nM, 1.68 nM and 5.9 nM, respectively.

B1: squamous cell carcinoma-antigen (SCC-A) (other, UniProt P29508 1-390, looked up)
chain: MNSLSEANTKFMFDLFQQFRKSKENNIFYSPISITSALGMVLLGAKDNTAQQIKKVLHFDQVTENTTGKAATYHVDRSGNVHHQFQKLLTEFNKSTDAYELKIANKLFGEKTYLFLQEYLDAIKKFYQTSVESVDFANAPEESRKKINSWVESQTNEKIKNLIPEGNIGSNTTLVLVNAIYFKGQWEKKFNKEDTKEEKFWPNKNTYKSIQMMRQYTSFHFASLEDVQAKVLEIPYKGKDLSMIVLLPNEIDGLQKLEEKLTAEKLMEWTSLQNMRETRVDLHLPRFKVEESYDLKDTLRTMGMVDIFNGDADLSGMTGSRGLVLSGVLHKAFVEVTEEGAEAAAATAVVGFGSSPASTNEEFHCNHPFLFFIRQNKTNSILFYGRFSSP
B1 had a Ki in test [4] of 0.067 nM.
